Common to all, as to assay: two-hybrid library CCNG1;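 note: natural log of median RNA to DNA barcode read ratio; higher means stronger binding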
One assay concerns the target T1, 4H967-bH.
T1 chain: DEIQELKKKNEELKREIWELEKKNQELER

The target of another assay is T2, O12.
T2 chain: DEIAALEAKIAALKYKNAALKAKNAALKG

The target of a further assay is T3, O13.
T3 chain: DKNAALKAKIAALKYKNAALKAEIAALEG

The next assay concerns the target T4, O14.
T4 chain: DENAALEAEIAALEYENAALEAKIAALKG

A further assay addresses T5, O15.
T5 chain: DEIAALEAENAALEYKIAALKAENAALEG

For the next assay, the target named is T6, O16.
T6 chain: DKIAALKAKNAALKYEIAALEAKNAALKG

The target of another assay is T7, O2.
T7 chain: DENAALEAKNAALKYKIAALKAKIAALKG

The target of the next assay is T8, O3.
T8 chain: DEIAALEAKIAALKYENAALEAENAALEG

The next assay has as its target T9, O4.
T9 chain: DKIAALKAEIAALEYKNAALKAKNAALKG

The next assay deals with T10, O5.
T10 chain: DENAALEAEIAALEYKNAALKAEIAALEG

A further assay addresses T11, O6.
T11 chain: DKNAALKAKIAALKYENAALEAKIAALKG

The target of the next assay is T12, O7.
T12 chain: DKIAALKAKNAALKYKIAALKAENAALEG

In another assay the target is T13, O8.
T13 chain: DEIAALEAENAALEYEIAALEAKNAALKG

Another assay concerns the target T14, O9.
T14 chain: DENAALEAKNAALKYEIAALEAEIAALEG

Take DEIQELKKKNEELKREIWELEKKNQELER [4H967-bH]: the results for the interaction score in the assay with 4H967-bH and with O12 were -0.406 and -1.53, respectively.

Turning to DEIAALEAKIAALKYKNAALKAKNAALKG [O12], the interaction score is -2.08 with O12; -2.04 with O13; -1.45 in the assay with O14; -1.36 with O15; -2.57 with O16; -2.46 with O2. In addition, the interaction score was 0.318 with O3; -1.08 with O4; -2.03 in the assay with O5; -2.27 with O6; -2.15 with O7; -1.51 in the assay with O8. The interaction score in the assay with O9 was -1.67.

Values taken from paper PMC10397247.
